# In patent US20240207418A1 (PROFOUNDBIO US, published 2024):
# Where a chain is given by its changes, count along the chain named.
# B1: anti-huFOLR-1 conjugate F131-LD038 (antibody, V domains shown)
# VH: EVQLLESGGGVVQPGRSLRLSCAASGFTFSSYGMHWVRQAPGKGLEWVAVISYDGSNKYYADSVKGRFTISRANSKNTLYLQMNSLRAEDTAVYYCARPRAYYGAYGSSFDYWGQGTQVTVSS
# VL: EIVMTQSPSSVSASVGDRVAITCRASQGISSWLAWYQQKPGKAPKLLIYAASSLQSGVPSRFSGSGSGTDFTLTISSLQPEDFATYYCQQSYSTPLTFGGGTKVDIK
# modifications: drug-linker LD038 coupled to cysteine thiols after TCEP reduction; positions not given; drug-linker LD038 (PB038; PEG unit, Val-Cit-PAB cleavable linker, exatecan) coupled by maleimide to cysteine thiols after TCEP reduction; DAR 7.6 by LC-MS; positions not given
# notes: also called F131-038; PA038 conjugate of F131
# B2: anti-FOLR1 antibody F138 (antibody, V domains shown)
# VH: B1 VH with R72T, A73H
# VL: B1 VL
# notes: Tested as full-length IgG with an IgG1 Fc, expressed in HEK293 (transfection supernatant); also called clone F138
# B3: anti-FOLR1 antibody F131 (antibody, V domains shown)
# VH: B1 VH
# VL: B1 VL
# notes: Tested as full-length IgG with an IgG1 Fc (HEK293 supernatant and purified; later ExpiCHO-S); also called F131 mAb; F131 Ab
# Assays:
# [1] = biological target: T1, rat FOLR1 extracellular domain linked to His tag (rat, UniProt G3V8M6 25-232); experiment: BLI, Ag 7.82 nM; * below range of quantification
# T1 construct: BLI analyte; also called Rat-Ag
# T1 sequence (G3V8M6 entry or part of it limits assumed): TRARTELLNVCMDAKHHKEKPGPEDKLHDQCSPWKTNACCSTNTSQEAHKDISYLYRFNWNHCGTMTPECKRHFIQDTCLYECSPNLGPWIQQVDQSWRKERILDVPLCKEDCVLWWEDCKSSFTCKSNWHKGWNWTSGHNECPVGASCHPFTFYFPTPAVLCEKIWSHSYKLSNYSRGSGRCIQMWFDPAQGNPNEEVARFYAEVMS
# [2] = biological target: T2, mouse FOLR1 extracellular domain linked to His tag (mouse, UniProt P35846 25-232, limits assumed); experiment: BLI, Ag 7.82 nM; * below range of quantification
# T2 construct: extracellular domain; BLI analyte; also called Mouse-Ag; not shown: His tag
# T2 sequence (P35846 25-232 limits assumed): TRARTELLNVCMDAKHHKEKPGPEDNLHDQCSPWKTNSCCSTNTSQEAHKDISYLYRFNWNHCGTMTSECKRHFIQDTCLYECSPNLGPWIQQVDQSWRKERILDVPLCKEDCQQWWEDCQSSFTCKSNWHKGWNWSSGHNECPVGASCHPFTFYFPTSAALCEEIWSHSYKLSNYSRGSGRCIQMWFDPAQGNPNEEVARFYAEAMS
# [3] = biological target: T3, human FOLR3 extracellular domain linked to His tag (human, UniProt P41439 23-245, limits assumed); experiment: BLI, global 1:1 fit; all responses below quantification range
# T3 construct: extracellular domain; BLI analyte; also called Hu-FRg; not shown: His tag
# T3 sequence (P41439 23-245 limits assumed): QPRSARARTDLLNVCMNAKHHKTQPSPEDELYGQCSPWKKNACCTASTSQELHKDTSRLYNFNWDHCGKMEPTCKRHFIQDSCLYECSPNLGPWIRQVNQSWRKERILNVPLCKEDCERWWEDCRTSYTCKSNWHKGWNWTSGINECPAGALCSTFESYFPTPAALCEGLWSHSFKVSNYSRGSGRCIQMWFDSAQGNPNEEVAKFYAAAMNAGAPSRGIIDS
# [4] = biological target: T1, rat FOLR1 extracellular domain linked …; experiment: as above
# [5] = biological target: T1, rat FOLR1 extracellular domain linked …; experiment: BLI, Ag 62.5 nM; * below range of quantification
# [6] = biological target: T2, mouse FOLR1 extracellular domain linked …; experiment: BLI, Ag 62.5 nM; * below range of quantification
# [7] = biological target: T1, rat FOLR1 extracellular domain linked …; experiment: BLI, Ag 125 nM; * below range of quantification
# [8] = biological target: T2, mouse FOLR1 extracellular domain linked …; experiment: BLI, Ag 125 nM; * below range of quantification
# [9] = biological target: T1, rat FOLR1 extracellular domain linked …; experiment: BLI, Ag 31.3 nM; * below range of quantification
# [10] = biological target: T2, mouse FOLR1 extracellular domain linked …; experiment: BLI, Ag 31.3 nM; * below range of quantification
# [11] = biological target: T1, rat FOLR1 extracellular domain linked …; experiment: BLI, Ag 15.6 nM; * below range of quantification
# [12] = biological target: T2, mouse FOLR1 extracellular domain linked …; experiment: BLI, Ag 15.6 nM; * below range of quantification
# [13] = biological target: T4, human FOLR1 protein, His tag (ACRO-FO1-H52H1) (human, UniProt P15328 25-233); experiment: ELISA, supernatant diluted 25x
# T4 construct: Bought recombinant protein used for panning and for coating ELISA plates; not shown: His tag
# T4 sequence (P15328 25-233 limits assumed): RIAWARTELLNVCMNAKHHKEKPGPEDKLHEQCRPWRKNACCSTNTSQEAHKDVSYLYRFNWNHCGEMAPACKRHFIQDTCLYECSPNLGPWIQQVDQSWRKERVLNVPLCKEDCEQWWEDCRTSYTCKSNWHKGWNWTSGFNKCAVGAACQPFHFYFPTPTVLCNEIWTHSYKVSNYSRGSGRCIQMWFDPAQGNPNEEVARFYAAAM
Binder,Response [1],Response [2],Kd [3],Kd [4],koff [4],kon [4],Response [5],Response [6],Response [7],Response [8],Response [9],Response [10],Response [11],Response [12],OD450 [13]
B1,-0.00438,-0.00483,0.0328 nM,84.8 nM,0.224 s⁻¹,2.64e+06 M⁻¹ s⁻¹,-0.00393,-0.000242,0.0007,0.0008,-0.00454,-0.00132,-0.00212,-0.00324,–
B2,–,–,–,–,–,–,–,–,–,–,–,–,–,–,0.827 OD450
B3,-0.00563,0.0027,–,–,1.03 s⁻¹,5490 M⁻¹ s⁻¹,-0.00606,-0.00178,-0.00477,-0.000579,-0.00532,-0.00251,-0.00395,-0.0051,–
